Data taken from patent publication US20190134153A1, “IMMUNOMODULATORY EFFECT OF INHALED KINASE INHIBITOR PEPTIDES IN LUNG” (MOERAE MATRIX, INC., priority 2017, published 2019).

Key:
Test in all cases: Kinase Profiling Assay
Type in all cases: biochemical
Settings in all cases: 100 μM
[1] = molecular target: Abl (Q252H) (h) (Homo sapiens, UniProt P00519, Q252H)
[2] = molecular target: CDK1/cyclinB(h) (Homo sapiens, UniProt P06493)
[3] = molecular target: CHK2(R145W)(h) (Homo sapiens, UniProt O96017, R145W)
Chain of CHK2(R145W)(h) (O96017 whole entry R145W): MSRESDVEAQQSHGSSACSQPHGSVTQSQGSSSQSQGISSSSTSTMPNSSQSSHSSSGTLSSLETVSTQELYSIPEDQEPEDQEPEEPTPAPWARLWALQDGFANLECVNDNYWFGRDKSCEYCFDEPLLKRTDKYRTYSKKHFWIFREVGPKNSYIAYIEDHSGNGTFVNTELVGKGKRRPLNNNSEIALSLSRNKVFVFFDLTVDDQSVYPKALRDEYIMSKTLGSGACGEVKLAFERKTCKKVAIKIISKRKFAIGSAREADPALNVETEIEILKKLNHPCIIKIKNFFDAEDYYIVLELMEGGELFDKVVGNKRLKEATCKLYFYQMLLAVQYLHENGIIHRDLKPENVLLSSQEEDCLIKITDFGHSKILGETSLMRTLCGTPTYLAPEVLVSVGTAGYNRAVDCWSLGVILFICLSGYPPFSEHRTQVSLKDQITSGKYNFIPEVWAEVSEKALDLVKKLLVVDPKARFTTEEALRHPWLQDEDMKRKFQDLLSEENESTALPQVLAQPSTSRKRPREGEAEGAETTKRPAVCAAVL

[4] = molecular target: T1, DMPK(h) (Homo sapiens, UniProt Q09013)
T1 sequence (Q09013 1-629): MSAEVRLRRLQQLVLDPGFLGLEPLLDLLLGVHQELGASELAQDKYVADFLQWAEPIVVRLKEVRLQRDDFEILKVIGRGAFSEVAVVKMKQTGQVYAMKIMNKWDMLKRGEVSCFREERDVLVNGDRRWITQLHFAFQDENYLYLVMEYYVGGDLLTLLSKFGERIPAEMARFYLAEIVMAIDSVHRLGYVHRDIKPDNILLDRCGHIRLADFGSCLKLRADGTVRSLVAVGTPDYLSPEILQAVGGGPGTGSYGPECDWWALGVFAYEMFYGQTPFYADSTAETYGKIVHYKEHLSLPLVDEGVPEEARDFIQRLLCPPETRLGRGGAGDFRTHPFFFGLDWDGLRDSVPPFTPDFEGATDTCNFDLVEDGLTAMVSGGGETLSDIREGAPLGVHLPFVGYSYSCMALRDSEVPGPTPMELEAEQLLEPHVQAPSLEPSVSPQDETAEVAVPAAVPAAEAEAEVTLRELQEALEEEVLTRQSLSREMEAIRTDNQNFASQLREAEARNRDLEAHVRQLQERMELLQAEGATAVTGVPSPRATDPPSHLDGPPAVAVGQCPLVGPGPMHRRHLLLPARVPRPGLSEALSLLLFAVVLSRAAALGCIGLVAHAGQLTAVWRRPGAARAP

[5] = molecular target: Fgr(h) (Homo sapiens, UniProt P09769)
[6] = molecular target: Hck(h) (Homo sapiens, UniProt P08631)
Chain of Hck(h) (P08631 whole entry): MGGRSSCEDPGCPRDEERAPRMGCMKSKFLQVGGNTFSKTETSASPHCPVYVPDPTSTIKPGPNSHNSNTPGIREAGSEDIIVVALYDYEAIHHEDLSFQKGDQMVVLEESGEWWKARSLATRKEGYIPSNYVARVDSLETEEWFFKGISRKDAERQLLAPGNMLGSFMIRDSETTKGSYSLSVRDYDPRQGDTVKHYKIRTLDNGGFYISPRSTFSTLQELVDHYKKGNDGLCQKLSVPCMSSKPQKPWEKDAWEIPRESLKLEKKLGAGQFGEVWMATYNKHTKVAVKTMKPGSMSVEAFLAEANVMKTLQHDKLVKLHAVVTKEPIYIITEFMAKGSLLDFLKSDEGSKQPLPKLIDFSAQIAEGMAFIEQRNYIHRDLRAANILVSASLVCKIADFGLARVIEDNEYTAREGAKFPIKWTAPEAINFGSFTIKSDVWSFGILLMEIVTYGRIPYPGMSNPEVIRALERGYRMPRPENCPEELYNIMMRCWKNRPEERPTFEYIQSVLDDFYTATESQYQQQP

[7] = molecular target: T2, IKKβ(h) (Homo sapiens, UniProt O14920)
T2 sequence (O14920 1-756): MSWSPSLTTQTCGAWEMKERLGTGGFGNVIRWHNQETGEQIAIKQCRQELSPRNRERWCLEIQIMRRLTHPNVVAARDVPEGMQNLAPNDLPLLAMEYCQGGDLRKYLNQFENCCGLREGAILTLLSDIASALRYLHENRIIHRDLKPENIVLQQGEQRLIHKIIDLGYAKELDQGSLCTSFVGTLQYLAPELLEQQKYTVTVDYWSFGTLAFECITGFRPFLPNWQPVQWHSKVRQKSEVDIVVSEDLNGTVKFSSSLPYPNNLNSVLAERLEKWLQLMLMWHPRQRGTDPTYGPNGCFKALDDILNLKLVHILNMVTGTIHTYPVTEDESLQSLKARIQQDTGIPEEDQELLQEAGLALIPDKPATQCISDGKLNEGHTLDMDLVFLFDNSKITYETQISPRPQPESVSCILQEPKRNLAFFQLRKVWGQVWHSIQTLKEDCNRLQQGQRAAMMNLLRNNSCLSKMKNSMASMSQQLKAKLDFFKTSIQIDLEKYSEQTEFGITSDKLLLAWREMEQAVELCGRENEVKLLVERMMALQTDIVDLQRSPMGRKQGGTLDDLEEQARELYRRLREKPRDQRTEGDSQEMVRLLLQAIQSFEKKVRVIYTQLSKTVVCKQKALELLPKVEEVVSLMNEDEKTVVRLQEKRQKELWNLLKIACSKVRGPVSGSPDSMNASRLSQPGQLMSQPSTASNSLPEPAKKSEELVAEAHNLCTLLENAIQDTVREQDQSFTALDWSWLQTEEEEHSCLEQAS

[8] = molecular target: T3, TAO3(h) (Homo sapiens, UniProt Q9H2K8)
T3 sequence (Q9H2K8 1-898): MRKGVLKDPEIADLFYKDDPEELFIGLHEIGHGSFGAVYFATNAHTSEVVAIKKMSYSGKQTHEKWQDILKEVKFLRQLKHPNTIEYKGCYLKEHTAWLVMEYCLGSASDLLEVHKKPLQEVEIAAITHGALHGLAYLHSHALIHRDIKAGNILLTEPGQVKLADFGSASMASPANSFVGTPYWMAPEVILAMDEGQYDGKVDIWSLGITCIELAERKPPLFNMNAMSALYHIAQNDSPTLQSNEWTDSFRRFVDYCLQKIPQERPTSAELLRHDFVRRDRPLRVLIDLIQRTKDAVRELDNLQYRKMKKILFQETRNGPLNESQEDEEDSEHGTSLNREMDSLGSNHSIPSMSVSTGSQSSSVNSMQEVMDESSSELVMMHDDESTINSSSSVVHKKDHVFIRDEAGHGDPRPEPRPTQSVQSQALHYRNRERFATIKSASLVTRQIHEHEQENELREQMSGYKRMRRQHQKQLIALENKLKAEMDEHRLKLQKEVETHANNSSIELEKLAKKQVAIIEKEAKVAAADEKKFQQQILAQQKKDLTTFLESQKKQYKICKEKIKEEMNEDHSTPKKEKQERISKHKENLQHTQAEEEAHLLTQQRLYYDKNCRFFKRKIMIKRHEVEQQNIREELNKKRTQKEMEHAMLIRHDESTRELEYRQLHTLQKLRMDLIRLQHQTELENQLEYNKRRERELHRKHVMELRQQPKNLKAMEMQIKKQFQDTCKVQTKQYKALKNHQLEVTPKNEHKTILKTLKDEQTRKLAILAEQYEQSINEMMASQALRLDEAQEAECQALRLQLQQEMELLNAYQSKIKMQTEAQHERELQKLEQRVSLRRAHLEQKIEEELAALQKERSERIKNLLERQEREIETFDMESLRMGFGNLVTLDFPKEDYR

Chain of CDK1/cyclinB(h) (P06493 whole entry): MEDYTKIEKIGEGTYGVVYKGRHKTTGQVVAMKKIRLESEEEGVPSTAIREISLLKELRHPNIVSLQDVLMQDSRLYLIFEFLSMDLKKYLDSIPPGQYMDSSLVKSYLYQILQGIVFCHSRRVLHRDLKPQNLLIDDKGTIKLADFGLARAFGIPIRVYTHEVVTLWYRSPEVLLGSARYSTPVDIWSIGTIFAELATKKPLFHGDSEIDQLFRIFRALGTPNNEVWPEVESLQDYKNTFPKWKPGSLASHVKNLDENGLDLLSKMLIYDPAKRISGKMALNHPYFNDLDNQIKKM
Chain of CDK1/cyclinB(h) (P14635 whole entry partner): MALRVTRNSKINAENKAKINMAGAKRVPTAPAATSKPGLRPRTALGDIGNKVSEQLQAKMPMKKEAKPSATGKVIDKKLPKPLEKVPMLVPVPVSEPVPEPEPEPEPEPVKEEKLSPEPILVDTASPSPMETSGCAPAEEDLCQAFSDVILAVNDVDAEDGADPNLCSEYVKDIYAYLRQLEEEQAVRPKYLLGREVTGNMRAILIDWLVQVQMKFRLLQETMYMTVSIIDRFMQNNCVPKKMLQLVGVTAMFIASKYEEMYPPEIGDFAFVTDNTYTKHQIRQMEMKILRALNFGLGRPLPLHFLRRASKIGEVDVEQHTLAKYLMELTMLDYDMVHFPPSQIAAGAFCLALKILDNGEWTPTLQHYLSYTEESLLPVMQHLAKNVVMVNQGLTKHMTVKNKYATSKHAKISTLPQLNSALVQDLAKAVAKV

| Sequence | % activity [1] | % activity [2] | % activity [3] | % activity [4] | % activity [5] | % activity [6] | % activity [7] | % activity [8] |
| --- | --- | --- | --- | --- | --- | --- | --- | --- |
| FAKLAARLYRKALARQLGVAA [MMI-0300] | 82% | 73% | 33% | 59% | 60% | 72% | 84% | 77% |
| HRRIKAWLKKIKALARQLGVAA [MMI-0500] | 40% | 57% | 3% | 12% | – | 78% | 71% | 12% |
| KAFAKLAARLYRKALARQLGVAA [MMI-0400] | 98% | 74% | 31% | 54% | 47% | 72% | 84% | 67% |
| YARAAARQARAKALNRQLGVA [MMI-0200] | – | – | 81% | 66% | 71% | – | – | – |
